For test [1], the target named is HLA-A*02:01 (Homo sapiens, UniProt P04439, D140Y/D185E/D98H/E176V/E277Q/G131W/G231S/I119V/I121R/I166T/I218V/L300P/L318F/N151K/N90K/P208A/P217A/Q86G/Q94H/R138H/R169H/T345S). The test is described as follows: T2 peptide binding (stabilization) assay. Type of test: cell-based. To be noted: peptides exogenously pulsed on T2 cells; anti-HLA-A2 FITC (BB7.2), FACS.
For test [2], the target named is T1, HLA-A*02:01 (Homo sapiens, UniProt P04439, D140Y/D185E/D98H/E176V/E277Q/G131W/G231S/I119V/I121R/I166T/I218V/L300P/L318F/N151K/N90K/P208A/P217A/Q86G/Q94H/R138H/R169H/T345S/Y108C).
T1 construct: made in house
In words: Secreted single-chain trimer (SCT) quantification assay. The source says: Peptide-MHC I complexes processed by endogenous machinery might show different stability compared to exogenous peptide pulsing (such as in T2 binding assays). This can be the result of post-translational modifications (PTMs). A recently developed technique, secreted single-chain trimer (SCT), was used to evaluate relative stability of pMHC of interest (36). In the secreted SCT construct, MHC I heavy chain (HLA-A*02:01 alpha chain with H74L and Y84C mutation), light chain (beta-microglobulin), and corresponding peptide were tethered by linkers as one single chain molecule (FIG. 3a). Constructs were expressed in cells and released into culture supernatant. Only peptides favored by HLA-A*02:01 are expected to generate a stable SCT and have higher yields. The quantity of SCTs was measured by band intensity on SDS-PAGE and normalized against a well-known WT1 cancer epitope that is restricted on HLA-A*02:01 ([…]) (FIG. 3b) (37, 38).
SCT quantification assay: SCT constructs (mutant H74L/Y84C) with individual PAP peptides were synthesized according to the previously published protocol (36).

The conditions of test [3]: men with metastatic castration-resistant prostate cancer; cited from earlier work.
In another test the test system is PAP+ target cells. To be noted: video evidence; cited from earlier work.
The target of another test is T2, PAP (Homo sapiens, UniProt P15309).
T2 sequence (P15309 33-386): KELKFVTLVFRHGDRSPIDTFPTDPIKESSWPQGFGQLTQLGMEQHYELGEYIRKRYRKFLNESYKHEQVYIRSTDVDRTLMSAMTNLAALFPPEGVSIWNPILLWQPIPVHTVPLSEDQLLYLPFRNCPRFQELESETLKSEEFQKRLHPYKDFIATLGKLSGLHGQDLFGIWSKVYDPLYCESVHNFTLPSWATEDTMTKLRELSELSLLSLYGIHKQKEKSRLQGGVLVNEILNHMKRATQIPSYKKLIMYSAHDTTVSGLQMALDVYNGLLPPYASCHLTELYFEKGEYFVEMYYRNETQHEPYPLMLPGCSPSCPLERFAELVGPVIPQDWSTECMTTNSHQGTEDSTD
To be noted: positive response SI>5 at week 6 post immunization; cited from earlier work.

Test [4] has as its target T3, prostatic acid phosphatase (PAP); peptide PAP_A2_21 peptide on HLA-A*02:01 (human).
T3 peptide: LLLARAASLSL
The test is described as follows: activation reporter or marker.

The target of test [5] is T4, HLA-A*02:01 on T2 cells (human).
T4 construct: also called HLA-A2; A2
The test is described as follows: T2 stabilization assay, HLA-A2 on T2 cells by anti-A2 (BB7.2) FITC flow cytometry. In general terms: Flow cytometry measures light scatter and fluorescence of single cells or particles in a stream.

Test [6] deals with T5, prostatic acid phosphatase (PAP); peptide PAP_A2_25 peptide on HLA-A*02:01 (human).
T5 peptide: IMYSAHDTTV
The test is described as follows: cytokine release.

Test [7] deals with T6, prostatic acid phosphatase (PAP); peptide PAP_A2_14 peptide on HLA-A*02:01 (human).
T6 peptide: ILLWQPIPV
In words: multimer staining.

Test [8] concerns the target T4, HLA-A*02:01 on T2 cells. The test is described as follows: T2 binding assay, HLA-A2 on T2 cells by anti-A2 (BB7.2) FITC flow cytometry.

For the molecule “ILLWQPIPV (listed as Homo sapiens) [PAP-A2-14]”, in the test with HLA-A*02:01 [1], the “HLA-A2 signal in T2 assay (slope of natural log of A2 fluorescent intensity vs diluted peptide concentration)” value is “Positive”.

For the molecule “IMYSAHDTTV (listed as Homo sapiens) [PAP-A2-25]”, in the test with HLA-A*02:01 [1], the “HLA-A2 signal in T2 assay (slope of natural log of A2 fluorescent intensity vs diluted peptide concentration)” value is “Positive”.

“KVYDPLYCESV (listed as Homo sapiens) [PAP-A2-20]”: the “HLA-A2 signal in T2 assay (slope of natural log of A2 fluorescent intensity vs diluted peptide concentration)” value with HLA-A*02:01 [1] is “Positive”.

With “LLLARAASLSL (listed as Homo sapiens) [PAP-A2-21]”, the “HLA-A2 signal in T2 assay (slope of natural log of A2 fluorescent intensity vs diluted peptide concentration)” value with HLA-A*02:01 [1] is on record as “Positive”.

As for “SVHNFTLPSW (listed as Homo sapiens) [PAP-A2-24]”, the “affinity toward HLA-A*02:01 after glycosylation” value with HLA-A*02:01 [2] (N-glycosylated peptide in SCT) is “altered affinity”. Besides, the “SCT yield normalized to control WT1 epitope (RMFPNAPYL)” value with HLA-A*02:01 [2] (band intensity on SDS-PAGE, cutoff 0.2 for relatively high stability) amounted to 1.40.

With sipuleucel-T, the “median improvement in overall survival” value in test [3] is reported as 4.1 months. In the test on PAP+ target cells, the “lysis of PAP+ target cells by T cells from treated patients” value is “capable of lysing”. Also, the “patients displaying T cell proliferation responses to PAP” value at PAP is recorded as 27.2%.

B1: PAP-TCR-175 (TCR, V domains shown)
Valpha: ILNVEQSPQSLHVQEGDSTNFTCSFPSSNFYALHWYRWETAKSPEALFVMTLNGDEKKKGRISATLNTKEGYSYLYIKGSQPEDSATYLCAFEDSGYSTLTFGKGTMLLVSP
Vbeta: DAGITQSPRYKITETGRQVTLMCHQTWSHSYMFWYRQDLGHGLRLIYYSAAADITDKGEVPDGYVVSRSKTENFPLTLESATRSQTSVYFCASGGLAGVDEQYFGPGTRLTVT
For the molecule B1, the binding result in [4] is “recognises”.

On to KVYDPLYCESV [PAP-A2-20 peptide KVYDPLYCESV], for which the binding result with HLA-A*02:01 on T2 cells [5] is “binds”.

B2: PAP-TCR-213 (TCR, V domains shown)
Valpha: TQLLEQSPQFLSIQEGENLTVYCNSSSVFSSLQWYRQEPGEGPVLLVTVVTGGEVKKLKRLTFQFGDARKDSSLHITAAQPGDTGLYLCAGAPETSGSRLTFGEGTQLTVNP
Vbeta: GAGVSQTPSNKVTEKGKYVELRCDPISGHTALYWYRQSLGQGPEFLIYFQGTGAADDSGLPNDRFFAVRPEGSVSTLKIQRTERGDSAVYLCASSFGGGSSPLHFGNGTRLTVT
Consider B2, for which, in test [6], the binding result was “recognises”.

B3: PAP-TCR-204 (TCR, V domains shown)
Valpha: AQSVTQPDIHITVSEGASLELRCNYSYGATPYLFWYVQSPGQGLQLLLKYFSGDTLVQGIKGFEAEFKRSQSSFNLRKPSVHWSDAAEYFCAVGAGDYKLSFGAGTTVTVRA
Vbeta: ETGVTQTPRHLVMGMTNKKSLKCEQHLGHNAMYWYKQSAKKPLELMFVYSLEERVENNSVPSRFSPECPNSSHLFLHLHTLQPEDSALYLCASSQTTGQPQHFGDGTRLSIL
As for B3, in test [7], the binding result is “recognises”.

As for LLLARAASLSL (also called PAP-21) [PAP-A2-21 peptide LLLARAASLSL], the binding result with HLA-A*02:01 on T2 cells [5] is “binds”.

Turning to TLMSAMTNL [PAP-A2-22 peptide TLMSAMTNL], the binding result in the test with HLA-A*02:01 on T2 cells [8] is recorded as “binds”.

B4: PAP-TCR-225 (TCR, V domains shown)
Valpha: DQQVKQNSPSLSVQEGRISILNCDYTNSMFDYFLWYKKYPAEGPTFLISISSIKDKNEDGRFTVFLNKSAKHLSLHIVPSQPGDSAVYFCAASVDEKLTFGTGTRLTIIP
Vbeta: DTGVSQNPRHKITKRGQNVTFRCDPISEHNRLYWYRQTLGQGPEFLTYFQNEAQLEKSRLLSDRFSAERPKGSFSTLEIQRTEQGDSAMYLCASSLQVEQFFGPGTRLTVL
With B4, the binding result in [4] is given as “recognises”.

Values taken from patent US20250161357A1, “HUMAN T CELL RECEPTOR PAIRS REACTIVE WITH HLA-A*02:01 RESTRICTED HUMAN PROSTATIC ACID PHOSPHATASE (PAP) EPITOPES” (The Regents of the University of California, priority 2022, published 2025).
